Measurements published in PMC10397247.

How the values were obtained:
4H584-bA = biological target: T1, 4H584-bA; assay: two-hybrid library CCNG1;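 also: natural log of median RNA to DNA barcode read ratio; higher means stronger binding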
T1 chain: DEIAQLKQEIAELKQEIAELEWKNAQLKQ

4H850-bA = biological target: T2, 4H850-bA; assay: two-hybrid library CCNG1;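 also: natural log of median RNA to DNA barcode read ratio; higher means stronger binding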
T2 chain: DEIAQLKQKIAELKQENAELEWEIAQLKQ

4H906-bA = biological target: T3, 4H906-bA; assay: two-hybrid library CCNG1;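 also: natural log of median RNA to DNA barcode read ratio; higher means stronger binding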
T3 chain: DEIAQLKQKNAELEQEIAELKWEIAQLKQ

O11 = biological target: T4, O11; assay: two-hybrid library CCNG1;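 also: natural log of median RNA to DNA barcode read ratio; higher means stronger binding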
T4 chain: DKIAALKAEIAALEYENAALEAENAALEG

4H570-bA = biological target: T5, 4H570-bA; assay: two-hybrid library CCNG1;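 also: natural log of median RNA to DNA barcode read ratio; higher means stronger binding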
T5 chain: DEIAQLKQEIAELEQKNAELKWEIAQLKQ

4H619-bA = biological target: T6, 4H619-bA; assay: two-hybrid library CCNG1;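 also: natural log of median RNA to DNA barcode read ratio; higher means stronger binding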
T6 chain: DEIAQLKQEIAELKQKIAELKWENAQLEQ

4H953-bN = biological target: T7, 4H953-bN; assay: two-hybrid library CCNG1
T7 chain: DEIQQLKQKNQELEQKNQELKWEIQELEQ

4H3409-AA = biological target: T8, 4H3409-AA; assay: two-hybrid library CCmax; settings: mean of both orientations
T8 chain: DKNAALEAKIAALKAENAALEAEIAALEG

4H2873-AA = biological target: T9, 4H2873-AA; assay: two-hybrid library CCmax; settings: mean of both orientations
T9 chain: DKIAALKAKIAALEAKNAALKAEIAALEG

4H1985-AA = biological target: T10, 4H1985-AA; assay: two-hybrid library CCmax; settings: mean of both orientations
T10 chain: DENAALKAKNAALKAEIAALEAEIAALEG

4H87-AA = biological target: T11, 4H87-AA; assay: two-hybrid library CCmax; settings: mean of both orientations
T11 chain: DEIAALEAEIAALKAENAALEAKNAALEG

4H2646-AA = biological target: T12, 4H2646-AA; assay: two-hybrid library CCmax; settings: mean of both orientations
T12 chain: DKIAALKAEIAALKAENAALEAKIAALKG

4H2985-AA = biological target: T13, 4H2985-AA; assay: two-hybrid library CCmax; settings: mean of both orientations
T13 chain: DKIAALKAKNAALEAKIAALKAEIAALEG

4H1710-AA = biological target: T14, 4H1710-AA; assay: two-hybrid library CCmax
T14 chain: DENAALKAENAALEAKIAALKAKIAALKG

4H3625-AA = biological target: T15, 4H3625-AA; assay: two-hybrid library CCmax; settings: mean of both orientations
T15 chain: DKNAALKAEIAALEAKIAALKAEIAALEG

4H2187-AA = biological target: T16, 4H2187-AA; assay: two-hybrid library CCmax
T16 chain: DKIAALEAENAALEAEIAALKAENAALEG

4H2758-AA = biological target: T17, 4H2758-AA; assay: two-hybrid library CCmax; settings: mean of both orientations
T17 chain: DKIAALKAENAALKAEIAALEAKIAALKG

4H816-AA = biological target: T18, 4H816-AA; assay: two-hybrid library CCmax; settings: mean of both orientations
T18 chain: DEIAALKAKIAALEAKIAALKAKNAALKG

4H3134-AA = biological target: T19, 4H3134-AA; assay: two-hybrid library CCmax; settings: mean of both orientations
T19 chain: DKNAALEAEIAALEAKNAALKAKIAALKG

4H510-AA = biological target: T20, 4H510-AA; assay: two-hybrid library CCmax; settings: mean of both orientations
T20 chain: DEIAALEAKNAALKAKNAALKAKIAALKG

4H3940-AA = biological target: T21, 4H3940-AA; assay: two-hybrid library CCmax; settings: mean of both orientations
T21 chain: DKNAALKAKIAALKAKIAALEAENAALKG

4H2705-AA = biological target: T22, 4H2705-AA; assay: two-hybrid library CCmax; settings: mean of both orientations
T22 chain: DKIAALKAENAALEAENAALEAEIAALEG

4H775-AA = biological target: T23, 4H775-AA; assay: two-hybrid library CCmax; settings: mean of both orientations
T23 chain: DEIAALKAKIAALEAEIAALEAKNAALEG

4H2512-AA = biological target: T24, 4H2512-AA; assay: two-hybrid library CCmax; settings: mean of both orientations
T24 chain: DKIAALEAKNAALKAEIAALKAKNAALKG

4H233-AA = biological target: T25, 4H233-AA; assay: two-hybrid library CCmax; settings: mean of both orientations
T25 chain: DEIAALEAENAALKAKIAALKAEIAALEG

4H390-AA = biological target: T26, 4H390-AA; assay: two-hybrid library CCmax; settings: mean of both orientations
T26 chain: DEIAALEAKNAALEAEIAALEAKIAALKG

4H278-AA = biological target: T27, 4H278-AA; assay: two-hybrid library CCmax; settings: mean of both orientations
T27 chain: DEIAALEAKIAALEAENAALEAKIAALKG

4H2687-AA = biological target: T28, 4H2687-AA; assay: two-hybrid library CCmax; settings: mean of both orientations
T28 chain: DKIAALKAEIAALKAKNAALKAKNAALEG

Binder DEIAQLKQEIAELEQKNAELKWEIAQLKQ [4H570-bA] has an interaction score (4H584-bA) of -1.33, an interaction score (4H850-bA) of 1.98 and an interaction score (4H906-bA) of 0.277. For the same binder, the interaction score (O11) was -0.882, the interaction score (4H570-bA) was -0.223 and the interaction score (4H619-bA) was -1.3. It also gave an interaction score (4H953-bN) of -0.0403.

DENAALKAENAALEAKIAALKAKIAALKG [4H1710-AA] gave an interaction score (4H3409-AA) of -0.675, an interaction score (4H2873-AA) of -0.937 and an interaction score (4H1985-AA) of 2.15. The interaction score (4H87-AA) was -1.16, the interaction score (4H2646-AA) was -1.37 and the interaction score (4H2985-AA) was 0.52. For the same binder, the interaction score (4H1710-AA) was -0.109, the interaction score (4H3625-AA) was -0.181 and the interaction score (4H2187-AA) was -0.907. The interaction score (4H2758-AA) was 1.82, the interaction score (4H816-AA) was -0.912 and the interaction score (4H3134-AA) was -0.882. For the same binder, the interaction score (4H510-AA) was -0.836, the interaction score (4H3940-AA) was -0.657 and the interaction score (4H2705-AA) was -0.626. For the same binder, the interaction score (4H775-AA) was -0.259, the interaction score (4H2512-AA) was -0.967 and the interaction score (4H233-AA) was 1.63. For the same binder, the interaction score (4H390-AA) was 1.21, the interaction score (4H278-AA) was -0.799 and the interaction score (4H2687-AA) was -1.29.
